This assay concerns the target MMPs of HT1080 cells. Kind of assay: cell-based or functional assay.

Non-standard residues stand in square brackets, D forms with d. Dox = doxorubicin conjugated to the C-terminal Leu; hPhe = N[C@@H](CCc1ccccc1)C(=O)O

Take Ac-PLG[hPhe]K(Me2)L-Dox [acetyl-P-L-G-Hof-(N,N-dimethyl-K)-L-Dox]: the Fraction of L-Dox, 0 hours, minus MMP inhibitor is 0; the Fraction of L-Dox, 0 hours, plus MMP inhibitor is 0; the Fraction of L-Dox, 3 hours, minus MMP inhibitor was determined as 0.1; the Fraction of L-Dox, 3 hours, plus MMP inhibitor was determined as 0.004. For the same molecule, the Fraction of L-Dox, 5.5 hours, minus MMP inhibitor is 0.2; the Fraction of L-Dox, 5.5 hours, plus MMP inhibitor was determined as 0.01; the Fraction of L-Dox, 8 hours, minus MMP inhibitor amounted to 0.46; the Fraction of L-Dox, 8 hours, plus MMP inhibitor amounted to 0.02.
